In PMC11255602:

Tests used:
[1] = biological target: PRMT1 E27 (N-terminal truncation lacking the first 26 amino acids) (UniProt Q99873); assay: native gel or EMSA
[2] = biological target: PRMT1 S14 (N-terminal truncation lacking the first 13 amino acids) (UniProt Q99873); assay: native gel or EMSA

Row | stoichiometry N [1] | stoichiometry N [2] | Substance
1 | 4 |  | PRMT1 E27 (N-terminal truncation lacking the first 26 amino acids) (from UniProt Q99873-3 27-353) (domain or fragment)
2 |  | 4 | PRMT1 S14 (N-terminal truncation lacking the first 13 amino acids) (from UniProt Q99873-3 14-353) (domain or fragment)
